Target: unmodified (unphosphorylated) recombinant tau, human 1N4R isoform (human)
Assay: thioflavin S fluorescence aggregation assay

unmodified (unphosphorylated) recombinant tau, human 1N4R isoform (natural protein)
net increase of ThS fluorescence (9 μM tau) (units of ThS fluorescence): 41
net increase of ThS fluorescence (18 μM tau) (units of ThS fluorescence): 54

Reference: PMC7530023
